{"source": "patent US20240029824A1", "about": "(University of Washington, published 2024)", "binders": {"B1": {"name": "DHT04 chain B (designed binder)", "chain": "DEELIIYIIELLLKDDELLLKSLEIILRIIQLQLTSKDKDDGTDKIKKLVDESKKILDDSERLAEELRKIEEKLK"}, "B2": {"name": "DHT10 chain B (designed binder)", "chain": "SELEEEIKRIRKEIEESRRRIEELRKKAQKAREGSSEKEFLQIYIELQKVLIEQIKIYIELLQIIFELQS"}, "B3": {"name": "DHT08 chain B (designed binder)", "chain": "DKEEKIKEILRRVQELRREHEELEERLKELKKELEKSPSQEELKKFIKLAQELIKLTLELIELSLRLIELLLG"}, "B4": {"name": "DHT09 chain B (designed binder)", "chain": "SKEEILKLHLEVAEIHIETVKIYLEVIKILIRLIEKNSSKEDERELEEELKELERELEELQKKLEEIRKELQEIEG"}, "B5": {"name": "DHT07 chain B (designed binder)", "chain": "DREEKLERETEKLEKKIRESQRRMEELRKQIETDPDEKELLEILIRSLRLLEEQLEALRKLNHAAQQLLG"}, "B6": {"name": "DHT06 chain B (designed binder)", "chain": "SEEDELEKAIREQKKALERLKEAIERYEETLKRGKNEKELAKTNAEILKTLLELFKSQLELAEIILKLLR"}, "B7": {"name": "DHT03_2arm_A21/Bt18/C chain B (designed binder)", "chain": "TEEKIAKEISRIAEESKKRIEELARKADNKTTETEVDKAIEKIAKLAREAIKRIEDLAKNLASEEFMARAISAIAELAKKAIEAIYRLADNHTTDTFMAKAIEAIAELAKEAIKAIADLAKNHTTEEFMARAISAIAELAKKAIEAIYRLADNHTTDTFMAKAIEAIAELAKEAIKAIADLAKNHTTEEFMAKAISAIMELAVKAILAIARLASNHTSQTYREKAREAVEKIARTAEKAIEDLAKNITTEEYKERAKKARAIVRVMAEVAKLLIEAVESQEEVERLKQEVEKASKAGLDHEGDSRIFKKIHDVVTKQIKVIIRLIAVYAELVAIIG"}, "B8": {"name": "DHT01 chain B (designed binder)", "chain": "SEQERREKAKEEVRELNEEFKEAEKRFRKLQEETKKALEEVEELNQRFEEALEEVERIKRRQK"}, "B9": {"name": "DHT02 chain B (designed binder)", "chain": "PQLDKFRDESRYLDKASKEVEDEIKKIEKIIRDADEKSLPEEALQDVVKSVVKVYLKSVKETIKSIELVIELIKVIM"}}, "key": {"[1]": {"biological_target": "T1, DHT03_variant_ABC-2 chain C", "T1 chain": "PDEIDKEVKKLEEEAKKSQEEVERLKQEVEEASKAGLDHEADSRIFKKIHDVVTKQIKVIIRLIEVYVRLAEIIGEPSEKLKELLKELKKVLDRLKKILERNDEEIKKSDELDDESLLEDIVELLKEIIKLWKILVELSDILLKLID", "assay": "native MS; loop-connectivity variant of DHT03, chains of one ABC heterotrimer"}, "DHT04 chain C": {"biological_target": "T2, DHT04 chain C", "T2 chain": "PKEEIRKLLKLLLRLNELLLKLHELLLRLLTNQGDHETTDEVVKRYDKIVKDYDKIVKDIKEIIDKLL", "assay": "co-expression, IMAC, SEC, native MS; chains of one ABC heterotrimer", "source_text": "(§1) Genes encoding 85 heterotrimers in a tricistronic expression vector were obtained, and the proteins were expressed in E. coli and purified via IMAC with only one chain having the 6×His-tag. Nine of the designs (FIG. 3a) had monodisperse SEC peaks (FIG. 3b), were almost exclusively ABC by nMS, and had good SAXS fits to the design models (Table 7). […] Eight of the designs are parallel heterotrimers, while DHTO9 is an antiparallel heterotrimer. […] For 3 other designs, only the ABC heterotrimer was determined to form by nMS (when the respective SEC fraction was analyzed) but the heterotrimer SEC peak was preceded by soluble aggregate that would make building with these constructs difficult downstream. We explored the dependence of cooperativity on connectivity between the three chains by changing the positions of the loops across different helices in DHT03, while keeping the rest of the interface intact. […] The ability to sustain alternate loop closures increases the number of heteromeric building blocks available for future nanostructure assembly applications and may enable rigid fusion of functional domains to the different termini available.\n(§2) Samples were analyzed by online buffer exchange native mass spectrometry (nMS) to evaluate sample purity and accurately determine oligomeric states⁴². Multiple instruments were used as the analyses were carried out over the duration of the protein design process. The mass spectrometers used for detection were a Q Exactive™ UHMR modified with a surface-induced dissociation device and an Exactive™ Plus EMR modified with a selection quadrupole and a surface-induced dissociation device (Thermo Fisher Scientific)⁴³. The liquid chromatography systems used for the buffer exchange include a Vanquish™ Duo UHPLC and a Dionex™ Ultimate 3000 HPLC (Thermo Fisher Scientific). A heated electrospray ionization source (HESI-II, Thermo Fisher Scientific) with a spray voltage of ˜4 kV was used for ionization."}, "DHT10 chain C": {"biological_target": "T3, DHT10 chain C", "T3 chain": "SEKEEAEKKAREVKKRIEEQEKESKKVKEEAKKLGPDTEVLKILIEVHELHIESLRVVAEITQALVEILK", "assay": "co-expression, IMAC, SEC, native MS; chains of one ABC heterotrimer", "source_text": "as §1, §2"}, "DHT08 chain C": {"biological_target": "T4, DHT08 chain C", "T4 chain": "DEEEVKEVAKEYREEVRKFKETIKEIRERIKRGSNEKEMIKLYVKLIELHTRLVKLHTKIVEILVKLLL", "assay": "co-expression, IMAC, SEC, native MS; chains of one ABC heterotrimer", "source_text": "as §1, §2"}, "DHT09 chain C": {"biological_target": "T5, DHT09 chain C", "T5 chain": "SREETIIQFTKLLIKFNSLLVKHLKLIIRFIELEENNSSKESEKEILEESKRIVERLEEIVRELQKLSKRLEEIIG", "assay": "co-expression, IMAC, SEC, native MS; chains of one ABC heterotrimer", "source_text": "as §1, §2"}, "DHT07 chain C": {"biological_target": "T6, DHT07 chain C", "T6 chain": "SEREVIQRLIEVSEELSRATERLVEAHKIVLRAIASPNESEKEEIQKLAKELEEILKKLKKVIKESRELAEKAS", "assay": "co-expression, IMAC, SEC, native MS; chains of one ABC heterotrimer", "source_text": "as §1, §2"}, "DHT06 chain C": {"biological_target": "T7, DHT06 chain C", "T7 chain": "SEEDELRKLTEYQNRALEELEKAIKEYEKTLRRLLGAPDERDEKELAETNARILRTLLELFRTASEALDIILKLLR", "assay": "co-expression, IMAC, SEC, native MS; chains of one ABC heterotrimer", "source_text": "as §1, §2"}, "[2]": {"biological_target": "T8, DHT03 chain C (SEQ ID NO: 65)", "T8 chain": "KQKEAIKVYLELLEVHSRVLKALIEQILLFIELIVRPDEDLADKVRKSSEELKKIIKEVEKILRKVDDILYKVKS", "assay": "co-expression, SEC, native MS, SAXS; chains of one ABC heterotrimer"}, "DHT01 chain C": {"biological_target": "T9, DHT01 chain C", "T9 chain": "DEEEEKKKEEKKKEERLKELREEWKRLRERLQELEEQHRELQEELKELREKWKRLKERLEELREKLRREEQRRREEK", "assay": "co-expression, IMAC and Strep-Tactin pull-down, SEC, native MS; chains of one ABC heterotrimer", "source_text": "We obtained genes encoding 20 coiled coil designed heterotrimers (DHTs) in a tricistronic E. coli expression vector with one chain having a 6×His-tag and a second chain having Strep-tag II, expressed the proteins, and purified by immobilized metal affinity chromatography (IMAC) and Strep-Tactin pull-down. All designs were soluble and for 6 designs, all three components were observed by liquid chromatography-mass spectrometry (LC-MS) after both pull-down approaches. Of these, 5 eluted as monodisperse peaks by SEC, but only 1 design (DHT01) was an exclusive ABC heterotrimer by native mass spectrometry (nMS) and had good agreement with the design model via small angle X-ray scattering (SAXS) (FIG. 2d, Table 7).\nas §2, with “ionization. Protein samples stored in Tris buffer were injected (0.1-2 ug) onto the LC system and exchanged at a flow rate of 100-200 uL*min⁻¹ into 200 mM ammonium acetate (mobile phase) prior to ionization. Buffer exchange columns used include self-packed columns with P6 polyacrylamide gel (Bio-Rad Laboratories) and prototype buffer exchange columns provided by Thermo Fisher Scientific (Sunnyvale, CA). Instrument parameters were optimized to allow for ion transmission while minimizing unintentional ion activation. […]” for “ionization.”"}, "DHT02 chain C": {"biological_target": "T10, DHT02 chain C", "T10 chain": "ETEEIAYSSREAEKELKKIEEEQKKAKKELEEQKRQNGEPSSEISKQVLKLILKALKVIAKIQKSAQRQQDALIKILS", "assay": "co-expression, IMAC, SEC, native MS; chains of one ABC heterotrimer", "source_text": "as §1, §2"}}}
{"binder": "QKEAIKVYLELLEVHSRVLKALIEQIKLFIELIKRK (designed binder)", "note": "[DHT03_variant_ABC-2 chain B]", "values": [{"measurement": "binding result", "setting": "[1]", "result": "binds"}]}
{"binder": "B1", "values": [{"measurement": "binding result", "setting": "DHT04 chain C", "result": "binds"}]}
{"binder": "B2", "values": [{"measurement": "binding result", "setting": "DHT10 chain C", "result": "binds"}]}
{"binder": "B3", "values": [{"measurement": "binding result", "setting": "DHT08 chain C", "result": "binds"}]}
{"binder": "B4", "values": [{"measurement": "binding result", "setting": "DHT09 chain C", "result": "binds"}]}
{"binder": "B5", "values": [{"measurement": "binding result", "setting": "DHT07 chain C", "result": "binds"}]}
{"binder": "B6", "values": [{"measurement": "binding result", "setting": "DHT06 chain C", "result": "binds"}]}
{"binder": "B7", "values": [{"measurement": "binding result", "setting": "[2]", "result": "binds"}]}
{"binder": "B8", "values": [{"measurement": "binding result", "setting": "DHT01 chain C", "result": "binds"}]}
{"binder": "B9", "values": [{"measurement": "binding result", "setting": "DHT02 chain C", "result": "binds"}]}
